Measurements: the RNAGym collection of RNA variant scans (doi:10.1093/molbev/msab373)

B1: Azoarcus group I ribozyme (parent)
chain: GUGCCUUGCGCCGGGAAACCACGCAAGGGAUGGUGUCAAAUUCGGCGAAACCUAAGCGCCCGCCCGGGCGUAUGGCAACGCCGAGCCAAGCUUCGGCGCCUGCGCCGAUGAAGGUGUAGAGACUAGACGGCACCCACCUAAGGCAAACGCUAUGGUGAAGGCAUAGUCCAGGGAGUGGCGAAAGUCACACAAACCGG

Variants of: B1
Test: reverse-splicing fitness (ratio to wild type); higher = more active; in vitro selection; Mg2+ level not given
In short: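 An in vitro group I ribozyme library with randomized positions was T7-transcribed and gel-purified. In triplicate, 10 pmol RNA in EPPS pH 7.5 was reacted with 50 pmoles of a 30-nt RNA substrate for 1 h at 37 °C across several added MgCl2 levels (1–48 mM), then stopped with EDTA. Products were reverse transcribed from a substrate-complementary primer, PCR-amplified and sequenced (HiSeq 4000). Fitness is a variant's read proportion after selection over that before, normalised to wild type.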

Row | Variant | reverse-splicing fitness
1 | A111C C169G U176C | 0.0355
2 | A111C C169G U176A | 0.0217
3 | A111C C169G U176G | 0.00725
4 | A111G A120C A145C C169A U176A | 0.0086
5 | A111G A120C A145C C169A U176C | 0.00508
6 | A111G A120C A145C C169A U176G | 0.00335
7 | A111C C150G C169G U176G | 0.00532
8 | A111C C150G C169G U176C | 0.00414
9 | A111C C150G C169G U176A | 0.00634
10 | A111G A120C A145G C150U C169G | 0.0142
11 | A111G A120C A145G C150U C169U | 0.224
12 | A111G A120C A145G C150U C169A | 0.0158
13 | A111G A120C A145U C150A C169U | 0.033
14 | A111G A120C A145U C150A C169G | 0.00748
15 | A111G A120C A145U C150A C169A | 0.00758
16 | A111G A120C A145C C150U C169U U176A | 0.0273
17 | A111G A120C A145C C150U C169U U176C | 0.0214
18 | A111G A120C A145C C150U C169U U176G | 0.00415
19 | A111G A120C A145C U176A | 0.42
20 | A111G A120C A145C U176G | 0.129
21 | A111G A120C A145C U176C | 0.419

Row | Variant | reverse-splicing fitness
22 | A111C A145U C150U C169A | 0.0212
23 | A111C A145U C150U C169U | 0.0751
24 | A111C A145U C150U C169G | 0.0433
25 | A111C A145G C150U C169A U176C | 0.0152
26 | A111C A145G C150U C169A U176A | 0.0141
27 | A111C A145G C150U C169A U176G | 0.00725
28 | A111G A120C A145G C150A U176G | 0.0203
29 | A111G A120C A145G C150A U176C | 0.0998
30 | A111G A120C A145G C150A U176A | 0.0804
31 | A111C C150U U176A | 0.339
32 | A111C C150U U176G | 0.138
33 | A111C C150U U176C | 0.388
34 | A111G A120C A145G C150A C169A U176C | 0.0181
35 | A111G A120C A145G C150A C169A U176A | 0.0185
36 | A111G A120C A145G C150A C169A U176G | 0.00507
37 | A111C A145U C150U U176C | 0.36
38 | A111C A145U C150U U176G | 0.166
39 | A111C A145U C150U U176A | 0.365
40 | A111G A120C A145G C150G U176G | 0.00497
41 | A111G A120C A145G C150G U176A | 0.0105
42 | A111G A120C A145G C150G U176C | 0.0262

Row | Variant | reverse-splicing fitness
43 | A111C C150G C169A | 0.00834
44 | A111C C150G C169U | 0.0134
45 | A111C C150G C169G | 0.00897
46 | A111G A120C A145G | 0.688
47 | A111G A120C A145U | 0.745
48 | A111G A120C A145C | 0.653
49 | A111C A145U C150G C169G | 0.0101
50 | A111C A145U C150G C169A | 0.00994
51 | A111C A145U C150G C169U | 0.0178
52 | A111C A145U C169A U176A | 0.0141
53 | A111C A145U C169A U176G | 0.00736
54 | A111C A145U C169A U176C | 0.018
55 | A111C A145U U176G | 0.276
56 | A111C A145U U176A | 0.424
57 | A111C A145U U176C | 0.398
58 | A111C U176C | 0.38
59 | A111C U176A | 0.368
60 | A111C U176G | 0.202
61 | A111C A145G C150U U176C | 0.404
62 | A111C A145G C150U U176A | 0.313
63 | A111C A145G C150U U176G | 0.135

Row | Variant | reverse-splicing fitness
64 | A111C A145G C150A C169A | 0.0128
65 | A111C A145G C150A C169U | 0.0232
66 | A111C A145G C150A C169G | 0.0154
67 | A111C A145G C150A | 0.31
68 | A111C A145G C150U | 0.679
69 | A111C A145G C150G | 0.212
70 | A111G A120C A145G C169A U176C | 0.0197
71 | A111G A120C A145G C169A U176G | 0.00366
72 | A111G A120C A145G C169A U176A | 0.0173
73 | A111G A120C A145C C150U C169A | 0.00825
74 | A111G A120C A145C C150U C169G | 0.00938
75 | A111G A120C A145C C150U C169U | 0.0786
76 | A111C A145G C150A C169U U176G | 0.00843
77 | A111C A145G C150A C169U U176C | 0.019
78 | A111C A145G C150A C169U U176A | 0.0185
79 | A111C C169A | 0.032
80 | A111C C169G | 0.0716
81 | A111C C169U | 0.128
82 | A111C C150U C169A U176G | 0.00796
83 | A111C C150U C169A U176C | 0.0136
84 | A111C C150U C169A U176A | 0.0164
